Source: publication PMC9135631 (2022)
Residue numbers refer to the chain shown, from its start. Names and notes keep the numbering of the source.

B1: Latrophilin-3 ADHD-related variant R465S (Lphn3^R465S) (receptor)
chain: MWPSQLLIFMMLLAPIIHAFSRAPIPMAVVRRELSCESYPIELRCPGTDVIMIESANYGRTDDKICDSDPAQMENIRCYLPDAYKIMSQRCNNRTQCAVVAGPDVFPDPCPGTYKYLEVQYECVPYKVEQKVFLCPGLLKGVYQSEHLFESDHQSGAWCKDPLQASDKIYYMPWTPYRTDTLTEYSSKDDFIAGRPTTTYKLPHRVDGTGFVVYDGALFFNKERTRNIVKFDLRTRIKSGEAIIANANYHDTSPYRWGGKSDIDLAVDENGLWVIYATEQNNGKIVISQLNPYTLRIEGTWDTAYDKRSASNAFMICGILYVVKSVYEDDDNEATGNKIDYIYNTDQSKDSLVDVPFPNSYQYIAAVDYNPRDNLLYVWNNYHVVKYSLDFGPLDSRSGQAHHGQVSYISPPIHLDSELERPSVKDISTTGPLGMGSTTTSTTLRTTTLSPGRSTTPSVSGRRNSSTSTPSPAVEVLDDMTTHLPSASSQIPALEESCEAVEAREIMWFKTRQGQIAKQPCPAGTIGVSTYLCLAPDGIWDPQGPDLSNCSSPWVNHITQKLKSGETAANIARELAEQTRNHLNAGDITYSVRAMDQLVGLLDVQLRNLTPGGKDSAARSLNKLQKRERSCRAYVQAMVETVNNLLQPQALNAWRDLTTSDQLRAATMLLHTVEESAFVLADNLLKTDIVRENTDNIKLEVARLSTEGNLEDLKFPENMGHGSTIQLSANTLKQNGRNGEIRVAFVLYNNLGPYLSTENASMKLGTEALSTNHSVIVNSPVITAAINKEFSNKVYLADPVVFTVKHIKQSEENFNPNCSFWSYSKRTMTGYWSTQGCRLLTTNKTHTTCSCNHLTNFAVLMAHVEVKHSDAVHDLLLDVITWVGILLSLVCLLICIFTFCFFRGLQSDRNTIHKNLCISLFVAELLFLIGINRTDQPIACAVFAALLHFFFLAAFTWMFLEGVQLYIMLVEVFESEHSRRKYFYLVGYGMPALIVAVSAAVDYRSYGTDKVCWLRLDTYFIWSFIGPATLIIMLNVIFLGIALYKMFHHTAILKPESGCLDNINYEDNRPFIKSWVIGAIALLCLLGLTWAFGLMYINESTVIMAYLFTIFNSLQGMFIFIFHCVLQKKVRKEYGKCLRTHCCSGKSTESSIGSGKTSGSRTPGRYSTGSQSRIRRMWNDTVRKQSESSFITGDINSSASLNREPYRETSMGVKLNIAYQIGASEQCQGYKCHGYSTTEW
B2: Latrophilin-3 wild type (Lphn3^HA,Flag) (receptor)
chain: B1 chain with S465R
B3: Latrophilin-3 ADHD-related variant T783M (Lphn3^T783M) (receptor)
chain: B1 chain with S465R, T783M
B4: Latrophilin-3 ADHD-related variant A247S (Lphn3^A247S) (receptor)
chain: B1 chain with A247S, S465R
B5: Latrophilin-3 ADHD-related variant D615N (Lphn3^D615N) (receptor)
chain: B1 chain with S465R, D615N
B6: soluble FLRT3 extracellular domain fused to the constant fraction of human IgG (FLRT3^ECD-Fc) (Fc fusion)
chain: KSCPSVCRCDAGFIYCNDRFLTSIPTGIPEDATTLYLQNNQINNAGIPSDLKNLLKVERIYLYHNSLDEFPTNLPKYVKELHLQENNIRTITYDSLSKIPYLEELHLDDNSVSAVSIEEGAFRDSNYLRLLFLSRNHLSTIPWGLPRTIEELRLDDNRISTISSPSLQGLTSLKRLVLDGNLLNNHGLGDKVFFNLVNLTELSLVRNSLTAAPVNLPGTNLRKLYLQDNHINRVPPNAFSYLRQLYRLDMSNNNLSNLPQGIFDDLDNITQLILRNNPWYCGCKMKWVRDWLQSLPVKVNVRGLMCQAPEKVRGMAIKDLNAELFDCKDSGIVSTIQITTAIPNTVYPAQGQWPAPVTKQPDIKNPKLTKDHQTTGSPSRKTITITVKSVTSDTIHISWKLALPMTALRLSWLKLGHSPAFGSITETIVTGERSEYLVTALEPDSPYKVCMVPMETSNLYLFDETPVCIETETAPLRMYNPTTTLNREQEKEPYKNPNLP
modifications: N-terminal HA/Flag epitopes left out; isoform not printed (Q9HAR2-2 chosen over Q9HAR2-4, both fit the variant numbering); signal peptide removed and autoproteolysis at the GPS expected in the cell

How the values were obtained:
[1] = target: 8xHis-tagged Teneurin-2 extracellular domain (Ten2^ECD-His) (UniProt Q9NT68 401-2774, HA/Flag epitopes left out; isoform assumed; signal peptide removed and GPS autoproteolysis expected)
[2] = target: 8xHis-tagged Teneurin-2 extracellular domain (Ten2^ECD-His) (UniProt Q9NT68 401-2774, N-terminal HA/Flag epitopes left out; isoform not printed (Q9HAR2-2 chosen over Q9HAR2-4, both fit the variant numbering); signal peptide removed and autoproteolysis at the GPS expected in the cell)
[3] = target: B2

Row | Binder | Kd [1] | also measured
1 | B1 | 1.06 nM | –
2 | B2 | – | Kd [2]: 0.69 nM
3 | B3 | 0.756 nM | –
4 | B4 | 1.15 nM | –
5 | B5 | 0.896 nM | –
6 | B6 | – | Kd [3]: 0.988 nM
